The record followed here is patent US20250122303A1 (HUMMINGBIRD BIOSCIENCE PTE, published 2025).

Experiment [1] deals with T1, His-tagged human HER3 (human, UniProt P21860 20-643).
T1 construct: Antigen of the BLI experiments and of the HER2-Fc dimerisation ELISA; also called HER3 His; not shown: His tag
The experiment in a line: Bio-Layer Interferometry (Octet QK384); antibody on anti-Human IgG Capture tips, HIS-tagged human HER3 at 35, 69, 139 and 278 nM.

Experiment [2] has as its target T1, His-tagged human HER3. The experiment in a line: plate ELISA dimerisation assay; HER2-Fc coated, constant HER3 His and NRG, antibody varied; blocked partner HER2-Fc. Here is the method: Plate-based ELISA dimerisation assays were carried out according to standard protocols. Plates were coated with 1 μg/ml HER2-Fc protein. […] Plates were then washed and incubated for 1 hour with secondary anti-HIS HRP antibody. […] The absorbance was read at 450 nm.

Experiment [3] concerns the target T1, His-tagged human HER3. The experiment in a line: BLI (Octet QK384), antibody on anti-human IgG capture tips, His-tagged human HER3 in solution, global one-site fit. The method, boiled down:
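Anti-HER3 IgG1 antibodies (25 nM) were captured on anti-human IgG sensor tips and binding to human HER3 was measured at 25° C with agitation at 1000 rpm.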

The target of experiment [4] is T1, His-tagged human HER3. As to the kind of experiment: BLI (Octet QK384), antibody on anti-human IgG capture tips, His-tagged human HER3 35-278 nM, global 1:1 fit; kdis Error 1.15E-04. Here is the method: The anti-HER3 antibody clones in IgG1 format were analysed for binding affinity to human HER3. Bio-Layer Interferometry (BLI) experiments were performed using the Octet QK384 system (ForteBio). anti-Human IgG Capture (AHC) Octet sensor tips (Pall ForteBio, USA) were used to anti-HER3 antibodies (25 nM). All measurements were performed at 25° C. with agitation at 1000 rpm. […] Sensograms were referenced for buffer effects and then fitted using the Octet QK384 user software (Pall ForteBio, USA). Kinetic responses were subjected to a global fitting using a one site binding model to obtain values for association (Kₒₙ), dissociation (Koff) rate constants and the equilibrium dissociation constant (KD). Only curves that could be reliably fitted with the software (R²>0.90) were included in the analysis.

In experiment [5] the target is T1, His-tagged human HER3. As to the kind of experiment: BLI (Octet QK384), antibody captured on AHC sensors, His-tagged human HER3 in solution, without NRG1. Here is the method: Binding of anti-HER3 antibodies to human HER3 was evaluated by BLI. Briefly, anti-Human IgG Capture (AHC) sensors (ForteBio) were loaded with anti-HER3 IgG antibodies (25 nM). Kinetic measurements were performed in absence or presence of NRG1. NRG1 was used at 1:1 molar ratio with HER3 wherein the complex was allowed to form at RT for 2 h. […] All measurements were performed at 25° C. with agitation at 1000 rpm. Sensorgrams were referenced for buffer effects and then analyzed using the Octet QK384-software (ForteBio). Kinetic responses were globally fitted using a one-site binding model to obtain values for association (Kₒₙ), dissociation (Koff) rate constants and the equilibrium dissociation constant (KD).

Where only a bound is given, the exact number is not on record here.

B1: 10D1F.FcA (anti-HER3 clone 10D1_c89 IgG1) (antibody)
heavy: not shown
light: DIQMTQSPSSVSASVGDRVTITCKASQIVGSNVAWYQQKPGKAPEPLIYSASYLYSGVPSRFSGSGSGTDFTLTISSLQPEDFATYYCQQYSSHPLTFGQGTKLEIKRTVAAPSVFIFPPSDEQLKSGTASVVCLLNNFYPREAKVQWKVDNALQSGNSQESVTEQDSKDSTYSLSSTLTLSKADYEKHKVYACEVTHQGLSSPVTKSFNRGEC
notes: also called 10D1F.A; HMBD-001
As for B1, the Kd in the experiment with His-tagged human HER3 [1] was 0.0726 nM; in the experiment with His-tagged human HER3 [3] it was 0.0726 nM; with His-tagged human HER3 [5] it was under 0.001 nM. In addition, the koff with His-tagged human HER3 [1] was 2.16e-05 s⁻¹; with His-tagged human HER3 [4], 2.16e-05 s⁻¹; with His-tagged human HER3 [5], under 1e-07 s⁻¹. The association rate constant (kon) was determined as 297000 M⁻¹ s⁻¹ with His-tagged human HER3 [1] and 199000 M⁻¹ s⁻¹ with His-tagged human HER3 [5]. The molecule also came in with an IC50 with His-tagged human HER3 [2] of 78.8 nM.
